The record followed here is a protein production outcome set (Wang et al. 2014).
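Note: failed if final PepcDB status was selected cloned or expressed and not failed if soluble or beyond.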

The data set can be described thus: label from the status in PepcDB records.
For “MGIIDRRRRRAVLVVAVVAAVLIFVADALSPIDGAVAVLYTGVVLMVAPLGRKFIVVAGYISAVLALTAFLWGHASDLVGGALLRLVVSLVAILITVLLSMRDRSARISLAEQVRILEASHDTVIIRDSAGIVRYWNEGAERLYGRSRDQAIGRHYAELFDESAPVDEIDRSMREAGSWSGEVVRTRRDGARLILASRWLQRRDPEGRAIGVIEASADLTESRRAQAEQRRSERRYSTIFNSAGFAALECDLSDALSLVLSAGADVAASLRADPALLAAAVERIVICEANPAALEMFDADGPGELIVAELLAFSIPDARQALETIFVALTTGSTQIETETRFITRRGRTIDAVLRLSVLPDGTDWSRVLLMAVDVTERNEARTKIERISAELAHAGRVSVLGQLAASIAHEVNQPLAAIINYGKSGKRWLVRPTSDIGEVAECLDKIVSNANRAAEVVGRVRFLARKSAPLTDSVDLVVMLQDAIELLRREIHSVKATVRVELSTPIAMIDCDRVQVQQVFVNLLMNALQAMRGIDGHRQILVRIEDSGDSLTVAVCDTGVGIAGDPARIFEPFFSTKSDGMGLGLSICRTIIEGQGGQILASNNDGPGATVAFTLLRNNPDEGRHNRRLIS”, the protein production result was “failed”. In the case of “MGIMELARIDLSRDDLDKRIGGGIPHGSLIIIEGEESTGKSVLCQRLAYGFLQNRYSVTYVSTQLTTLEFIKQMNSLNYSINKKLLSGALLYIPVYPLIADNKKKDGFLKKVMETRAFYEKDVIIFDSISALIANDASEVNVDDLMAFFKRITALKKIIICTVNPKELPESVLTIIRTSATMLIRTELFTFGGDLKNLAKILKYNMAPGSYQKNIVFRVEPKIGIAVEIASVALEHHHHHH” it was “not failed”; in that of “MGKDAKAGGKGKGKQASGSEEAPSKGKGKAGKAADGLGTCTYVKARHVLCEKQGKINEAYKKLQDGWLSNGDKVPPAEFAKIAAEYSECPSGKKGGDLGWFPRGKMAGPFQDVAFNTPVGVTSAPFKSTHGYHIILSEGRKN”, “failed”; in that of “MGKFLIPIEFVFLAIAMTCYLWHRQNQERRRIEISIKQQTQRERFINQITQHIRQSLNLETVLNTTVAEVKTLLQVDRVLIYRIWQDGTGSAITESVNANYPSILGRTFSDEVFPVEYHQAYTKGKVRAINDIDQDDIEICLADFVKQFGVKSKLVVPILQHNRASSLDNESEFPYLWGLLITHQCAFTRPWQPWEVELMKQLANQVAIAIQQSELYEQLQQLNKDLENRVEKRTQQLAATNQSLRMEISERQKTEAALRHTNHTLQSLIAASPRGIFTLNLADQIQIWNPTAERIFGWTETEIIAHPELLTSNILLEDYQQFKQKVLSGMVSPSLELKCQKKDGSWIEIVLSAAPLLDSEENIAGLVAVVADITEQKRQAEQIRLLQSVVVNTNDAVVITEAEPIDDPGPRILYVNEAFTKITGYTAEEMLGKTPRVLQGPKTSRTELDRVRQAISQWQSVTVEAEVLNDSYKEKKSPLK”, “failed”.

Take “MGKINTDPAATSGIKVLDRAVSIMLAVAERPLSLTELCDVTNLPRATAHRLATALETHNILTRTSDGKWTIGAVLSSLGA”: the protein production result is given as “failed”. In the case of “MGKKIITISREYGSGGRQVGLTVAKKLGMEFYDKELIDAAAKEIGFPTEMIADREQRLTNSLLYNFAMGTLYGIAYPREPKVSELPLTEQIYQAQKKAIEEAAKRGSCIFVGRCADYILKSRPDVLRVFIYADRDIRKRRAIEEYGEIEEYIDEFMYQTDKRRRIHYENYTNQKWGSRENYDLMLNSGDLGLDKCVELLCEAVK”, the protein production result is given as “not failed”.

Regarding “MGKPVTNEAKGVYVMSVLPNMPAAGRLEAGDRIAAIDGQPINTSEQIVSYVREKQAGDRVRVTFIRDRKQHEAELVLKPFPHHPNQIGLGVTLRTLEHHHHHH”, the protein production result was “not failed”.

For “MGKTKRYWLLKTEPNEWSWSDQESNGGISKWDGVKNKQAQKNLKSMTLGDLCFFYHSGTKSRCVVGVVEVSREWYTDDAEGVEGEGAVDVKAIGEMRKCVDLKEMKGDKGIITKGFVLFRQPRLSVVPVEEDVWNMICELGNGFCGDGKEDCESSDDE”, the protein production result is “failed”. Turning to “MGKVSSLKLKTNRRCIYITTIKEITEAIKADPDNAEYTAKGWDPLFHVLPTATILVISQAPGRIAQNTKTYFNDASGDRLRDWMGVTREQFYQSDRIAVMPLDFYYPGKGKSGDLPPRKGFMDKWHEPLLAMMPNVQLTLLVGQYAIKAYLGRSRQKTLTATVQNYQDYLPDYFPLVHPSPLNYGWQKKNPWFQATVVPDLQRRVQIALK”, the protein production result is reported as “failed”. In the case of “MGKVTIIAGGIKTESRLNGLIQLAANQLANNGTEVKIIEVHKIQAEALVTADFTHPDIHLANSEIESSSGVIIATPIFKAAYSGVLKAYLDLLPLKALKGKVVLPLGLGGSNGHLLALQYALDPVLKELGAEIILKGQFTVDKQIERLGNGLYEIEITAKERLDSALNQFISLLNQNSVEVLEHHHHHH”, the protein production entry is “not failed”. In the case of “MGKVYRTSQMAASILVNAIYAMKNFPITLVNTLLSPLSFLLVITLASHGRLLSVSVGGALIMSMISSGIGLQGDLSHLKNDFKLQDMVVSSPTTASVYLIGMAISEIVYSIPALAVLGVHASIYIHTTVVGVFQIVAVMVLMFSFSILLGFTLATITYDIIQSWAFSGIISTLISTIPPVYYPITYIPMPFRYAAYASPTTYGAELVQSAIGFVHLSGASFIVDWVILIMINVVFFIIALKKARWREI” it was “failed”. In the case of “MGLDDLVGQWLLPGMALAAVGVFFCIKGYLLRRQMARDALTDALTVGELRRRVHALVLGKRQRVYSGAMFLVEVVHHPELSAMLGLEDNKLLLAMIAQRLQMQSDYFQVARHSSDSFMVWAPDLDPRSARDVAPEVLDALSQPYELRGQPLIVGFRLSGALYAQHGACFDELERSLHIAMLHLDESAGAAWNMFEPSMLEHQRHYQGLEHDLRVALVSSSMDQFEVCYQPVCDSVTGTIYGCEALLRWHHPVHGDVSPALVIELAERTGLIVPLGAWVLETACSRAITWPAAWRLHVNVSVRQMYADELPAQVALALAASRLSAQRLVLEITESLFIQQYERHVATLNGMRAKGVRVALDDFGAGYSSLTHLRRLPIDWVKLDRGFVAEIEFDAVSREVVSALMGMCRALGLAVVAEGVETPAQREILKALGCREMQGFLLGRPVSAERIRELGAAVS” it was “failed”; in that of “MGLFELNLAIILFIIGNFIGLEYSYRKYSSPYVEKGIDKFALAISVFGGILINSPLYMLGCLLIGFPLGMRPGYGRVEFVVGLAVALFLYFLRW”, “failed”. In the case of “MGLKNIVVFVEPSNAGATRARYAVELARRHGAHLIGIFVASSDGPIPANAYVRGRDAMRRLIELHDANAIETTSVASRNFNTATNSADITYEFRIIREIESDDTKLHCLHADLVIVGHPRPGGLPLYSSAEGLLLATGIPFLIVPDGWPSGAVAQRVLLAWNASREARRAITDSLPLLSAAQSVSIVVIDSAKNRLHGENPGADVAVYLSRHGAHVTTEQIDSNGSPIADVILQHAVHGGFDLIVLGAYSHARVREAVFGGVTRSLLKLATIPMLIAH” it was “failed”; in that of “MGLNIKPLVVSVLGSVLLAGCATAPPKQQDNLCEIFREKSGWYDDAKYMEKEWGTPIHVAMAIIKQESSFRHDAKPPKDYVLGFIPWGRVSSAYGYAQAQDPAWDDFQDSTGQGGSRSNFDDSIMFVGWYTHETRRQLGISLWDPYNQYLAYHEGRGGYKRGTYKRKPSLMKVARRVEQTAKTYGWQLKQCRQELEDNSSWFF”, “failed”. With “MGLSHKFQVKQFVEISPYSQSRLRHEQPQTPIHSDITTYHCHRGQFDIVAGGLPCQGTSNAGNRQGLDDPRSALWAEQFRIIESDRPAIALIENPTGLLYRGLEQIICDLDSIGYMGEWNCISAQQVGLPHQRKRIFIIAYSNGLFNQVVPAPWSNQIGNHITQVRLSLETRSYQPGISKVASRIPIGVAKNIPGNYDARRAYGLSCSPRQAAVAWKRIDYLCSLLEHHHHHH”, the protein production result is “failed”. In the case of “MGLVTDEVRARAEKYTGDEICREKTKEFLKEVSMPNGLLPLKDIEEVGYDRETGIVWLKQKKSITHKFEAIGKLVSYATEVIAQVEVGKIKKLTGVKAKELLIWVTLNELVLEQPTSSGKINFRTPTGLSRTFPVSAFVVPEVEKPATEKNNGTTEVKEAVAVTDA” it was “failed”; in that of “MGLVVSARSVSPLKKWPSRVRSFSINMGQPKSGQGWKLGACCPANRHNRERTRSCAPAGLTCLRPAPAPWACLGLDLCPSLGLDLGPSLGLALRSGPAEETMDPAGRARGQGATAGGLLLRAAAAAKGLREDLWGAAALPWRSLSRIPKREGLGEEDTAVAGHELRESRDEVSENQAAGRAGSKGLEKVPRAAPPDAAGGKLARRLSPGTPSPSLHRCTPLLPNERSFQNAAKSNNLDLMEKLFEKKVNINVVNNMNRTALHFAVGRNHLSAVDFLLKHKARVDVADKHGLTVIHLAAWSGSLEVMLMLVKAGADQRAKNQDGMSALHFATQSNHVRIVEYLIQDLHLKDLNQPDEKGRKPFLLAAERGHVEMIEKLTFLNLHTSEKDKIQWSTLWTAALTKMKTSRNSIAALTIEGACSPGTGVSTSSVSLLQGGNTALHLAAKHGHSPAVQVLLAQWQDINEMNELNISSLQIATRNGHASLVNFLLSENVDLHQKVEPKESPLHLVVINNHITVVNSLLSAQHDIDILNQKQQTPLHVAADRGNVELVETLLKAGCDLKAVDKQGKTALAVASRSNHSLVVGMLIKAERYYAWREEHHESIRDPSTGFTLTFKQDHSLETRHIRTLLWDLAYHQLKANEWQRLARSWNFTDDQIRAIEEQWSDENLGNIESLLGINQLISFENNEANMFLGKVFYSEHCPLMDILRREGVLAQGSICIRDCWELGMAEAQSMSTHYLYHIQEAVYRNIILTSYSPSVVLAVAHTEYGTMEGACKLSAASPLGNDPVNTGYSLAWQFCVIPLLSI”, “failed”; in that of “MGMDLRVVPAEEWLNRGIDSSHDGEHDLGLMVTDFLETGGGSGGAGSWCSSDSDSGFPDPSYLSDKIQYLKYSMAQHETEVLSVVRTLMLTIKEKDLHSVKSGTCNASCIRFYLAKLLRLSGYDAAVCSARWQGGGKVPGGDNEYIDIILSDTEVGQDDRLIVDIDFRSHFEIARAVDSYQRIMESLPVVYVGTVARLNQFLQVMVDAAKFSLKQNSMPLPPWRSLNYLRSKWHSPHKRHLGPIDQQGPGMFSPGLHGQCAENLKRLQFALQVEQEAERFMKKKSGFSRRN”, “failed”. Turning to “MGMFERDTEIYLDRDALREDYQPENLVGRDTELNRYRAALQPVINGEQPNNIFLYGKTGVGKTAGTRYLIDHLEEDAAKYEDIDLTVKMLNCDGLSSSYQIATRLVNEFRDETSQISTTGYPRATVYDMLWTELDSCGGTIYIVLDEVDHIEDDSILYQLPRARANDNLSSAKIGIIGISNDFSFRDDLSPKVKSSLCEEEIQFPAYDAKELIQILQQRADVAFHDGVLEDGVIELCAAYGAKDAGDARQSLDLLMKTGDLARDKDTDTISEDLVREARDVLERGRIQEGISGLTQHGHLVVYAMVTLDQEGKTPARTRDIRPRYTNFAEKAGIDPLVPRRMRDHLGELSMLGIISAIERNEGRRGGTYREYSLEMDPEMILAALEKTVDDVGIHKSVTNLVDAEATLSDFQST”, the protein production result is reported as “failed”. Take “MGMKYWSSKRRLYLTPVSFGFACSALLMLGTLSSYPDWLTCNPAPVVNQNDAVIYYFFRNIMMAVLFMSSIILYYFRQRIMHSWKAHVLTFTACILFTLTIIVLSWLYSSHSPWLSVNFIDDLSHTFTPLWQSIIGWLLMAVWFITLILLISLSKLRNIFWFSGAFFCSAYLFTLFQLLSTAGELDQTWYQARFFETLCTLFLILVLLVDVFILYRESNHKYVHSYQNSIRDPLTRLYNRSFFYDTLNQQLAKVNAQHPLSVLISDLDHFKRINDSYGHVAGDKVIQFAASVLESHSRVDDAAARIGGEEFALLLVNTGEKEAQAIAERIRLAVSAGESHLPERMTISMGVYTTYDNSVTAEACVQRADEAMYEAKNNGRNQVIVWHQQGG”: the protein production result is listed as “failed”.
